Laboratory results from patent US20250129145A1 (Ablynx, published 2025).

Legend:
human serum albumin [1] = target: T1, human serum albumin (human, UniProt P02768 25-609); test: SPR ProteOn XPR36, HSA immobilized (GLC sensor), pH 7.4, Langmuir 1:1 fit
T1 construct: Bought protein; also called HSA
Protocol: (§1) In a first experiment, the affinities of monovalent (ALB00223) and a bivalent ALB23002 construct (T032200003) for human and mouse serum albumin (HSA and MSA, respectively) at pH 6.0 and pH 7.4 were determined on a ProteOn XPR36 instrument (Bio-rad Laboratories, Inc.). HSA or MSA (HSA: Sigma-Aldrich—Sigma, Cat No. A8763; MSA: Albumin Bioscience, Cat No. 2601) was immobilized via amine coupling on a GLC sensor (short matrix, normal capacity). The constructs were injected at 6 different concentrations (between 0.95 and 500 nM) and allowed to associate for 120 s at 45 μL/min and dissociate for 600 s. Evaluation of the sensorgrams was based on the Kinetic Langmuir 1:1 (simultaneous ka/kd) fit.

mouse serum albumin [2] = target: T2, mouse serum albumin (mouse, UniProt P07724 25-608); test: SPR ProteOn XPR36, MSA immobilized (GLC sensor), pH 6.0, Langmuir 1:1 fit
T2 construct: Bought protein; also called MSA
Protocol: as §1

mouse serum albumin [3] = target: T2, mouse serum albumin; test: SPR ProteOn XPR36, MSA immobilized (GLC sensor), pH 7.4, Langmuir 1:1 fit
Protocol: as §1

human serum albumin [4] = target: T1, human serum albumin; test: SPR ProteOn XPR36, HSA immobilized (GLC sensor), pH 6.0, Langmuir 1:1 fit
Protocol: as §1

mouse serum albumin [5] = target: T2, mouse serum albumin; test: SPR Biacore 8K+, MSA immobilized (C1 chip), pH 7.4, bivalent analyte fit (ka1)
Protocol: (§2) The constructs containing a 9GS and 35GS linker between the albumin-binding building blocks were selected for further characterization. The affinities of the purified ISVD expression constructs for human and mouse serum albumin (HSA and MSA, respectively) at pH 6.0 and pH 7.4 were determined on a Biacore 8K+ instrument. HSA or MSA (HSA: Sigma-Aldrich-Sigma, Cat No. A8763; MSA: Albumin Bioscience, Cat No. 2601) was immobilized on a Series S Sensor Chip C1. The fusion proteins as described in Table 7 above were injected at 9 different concentrations (between 0.6 and 2000 nM) and allowed to associate for 120 s at 30 μL/min and dissociate for 600 s. Evaluation of the sensorgrams was based on the bivalent analyte fit.

human serum albumin [6] = target: T1, human serum albumin; test: SPR Biacore 8K+, HSA immobilized (C1 chip), pH 7.4, bivalent analyte fit (kd1)
Protocol: as §2

human serum albumin [7] = target: T1, human serum albumin; test: SPR Biacore 8K+, HSA immobilized (C1 chip), pH 6.0, bivalent analyte fit (KD1)
Protocol: as §2

human serum albumin [8] = target: T1, human serum albumin; test: SPR Biacore 8K+, HSA immobilized (C1 chip), pH 6.0, bivalent analyte fit (kd1)
Protocol: as §2

human serum albumin [9] = target: T1, human serum albumin; test: SPR Biacore 8K+, HSA immobilized (C1 chip), pH 7.4, bivalent analyte fit (ka1)
Protocol: as §2

mouse serum albumin [10] = target: T2, mouse serum albumin; test: SPR Biacore 8K+, MSA immobilized (C1 chip), pH 7.4, bivalent analyte fit (kd1)
Protocol: as §2

mouse serum albumin [11] = target: T2, mouse serum albumin; test: SPR Biacore 8K+, MSA immobilized (C1 chip), pH 6.0, bivalent analyte fit (KD1)
Protocol: as §2

mouse serum albumin [12] = target: T2, mouse serum albumin; test: SPR Biacore 8K+, MSA immobilized (C1 chip), pH 6.0, bivalent analyte fit (ka1)
Protocol: as §2

human serum albumin [13] = target: T1, human serum albumin; test: SPR Biacore 8K+, HSA immobilized (C1 chip), pH 6.0, bivalent analyte fit (ka1)
Protocol: as §2

mouse serum albumin [14] = target: T2, mouse serum albumin; test: SPR Biacore 8K+, MSA immobilized (C1 chip), pH 7.4, bivalent analyte fit (KD1)
Protocol: as §2

mouse serum albumin [15] = target: T2, mouse serum albumin; test: SPR Biacore 8K+, MSA immobilized (C1 chip), pH 6.0, bivalent analyte fit (kd1)
Protocol: as §2

human serum albumin [16] = target: T1, human serum albumin; test: SPR Biacore 8K+, HSA immobilized (C1 chip), pH 7.4, bivalent analyte fit (KD1)
Protocol: as §2

T2 sequence (P07724 25-608 limits assumed): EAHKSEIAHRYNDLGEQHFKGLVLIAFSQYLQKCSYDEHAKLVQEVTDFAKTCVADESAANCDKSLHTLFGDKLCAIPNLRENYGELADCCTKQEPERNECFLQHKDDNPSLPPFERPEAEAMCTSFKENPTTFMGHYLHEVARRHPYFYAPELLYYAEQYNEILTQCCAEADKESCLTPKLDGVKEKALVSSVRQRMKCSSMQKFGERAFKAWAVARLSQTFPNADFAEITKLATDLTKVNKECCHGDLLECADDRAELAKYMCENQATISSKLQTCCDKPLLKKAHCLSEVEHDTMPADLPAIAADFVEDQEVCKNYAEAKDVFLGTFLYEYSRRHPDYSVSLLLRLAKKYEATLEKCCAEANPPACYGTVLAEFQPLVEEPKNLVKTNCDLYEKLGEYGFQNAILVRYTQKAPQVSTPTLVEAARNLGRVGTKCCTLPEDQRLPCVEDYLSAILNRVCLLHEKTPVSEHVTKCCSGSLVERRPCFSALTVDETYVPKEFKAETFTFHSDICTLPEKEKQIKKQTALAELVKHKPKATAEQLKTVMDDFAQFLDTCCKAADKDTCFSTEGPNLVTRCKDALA

| kon (mouse serum albumin [5]) | koff (human serum albumin [6]) | Kd (human serum albumin [7]) | koff (human serum albumin [8]) | kon (human serum albumin [9]) | koff (mouse serum albumin [10]) | Kd (mouse serum albumin [11]) | kon (mouse serum albumin [12]) | kon (human serum albumin [13]) | Kd (mouse serum albumin [14]) | koff (mouse serum albumin [15]) | Kd (human serum albumin [16]) | Binder | also measured |
| --- | --- | --- | --- | --- | --- | --- | --- | --- | --- | --- | --- | --- | --- |
| – | – | – | – | – | – | – | – | – | – | – | – | T032200003 (VHH, also called ALB23002-35GS-ALB23002; bivalent ALB23002 construct) EVQLVESGGGVVQPGGSLRLSCAASGFTFRSFGMSWVRQAPGKGPEWVSSISGSGSDTLYADSVKGRFTISRDNSKNTLYLQMNSLRPEDTALYYCTIGGSLSRSSQGTLVTVSSGGGGSGGGGSGGGGSGGGGSGGGGSGGGGSGGGGSEVQLVESGGGVVQPGGSLRLSCAASGFTFRSFGMSWVRQAPGKGPEWVSSISGSGSDTLYADSVKGRFTISRDNSKNTLYLQMNSLRPEDTALYYCTIGGSLSRSSQGTLVTVSS | Kd (human serum albumin [1]): 0.865 nM; koff (human serum albumin [1]): 0.000461 s⁻¹; kon (human serum albumin [1]): 533000 M⁻¹ s⁻¹; Kd (mouse serum albumin [2]): 1.61 nM; koff (mouse serum albumin [2]): 0.00164 s⁻¹; kon (mouse serum albumin [2]): 1.02e+06 M⁻¹ s⁻¹; Kd (mouse serum albumin [3]): 1.96 nM; koff (mouse serum albumin [3]): 0.00167 s⁻¹; kon (mouse serum albumin [3]): 854000 M⁻¹ s⁻¹; Kd (human serum albumin [4]): 0.512 nM; koff (human serum albumin [4]): 0.000388 s⁻¹; kon (human serum albumin [4]): 759000 M⁻¹ s⁻¹ |
| 170000 M⁻¹ s⁻¹ | 0.0015 s⁻¹ | 9 nM | 0.0015 s⁻¹ | 120000 M⁻¹ s⁻¹ | 0.034 s⁻¹ | 210 nM | 190000 M⁻¹ s⁻¹ | 170000 M⁻¹ s⁻¹ | 210 nM | 0.04 s⁻¹ | 12 nM | T026301360 (VHH, not shown: large carriers; small tags and cut ends, Tetravalent ISVD fusion protein made in P. pastoris; X and Y are undisclosed target ISVDs; also called X-9GS-Y-9GS-ALB23002-9GS-Alb223; X-Y-Alb23002-Alb223) EVQLVESGGGVVQPGGSLRLSCAASGFTFRSFGMSWVRQAPGKGPEWVSSISGSGSDTLYADSVKGRFTISRDNSKNTLYLQMNSLRPEDTALYYCTIGGSLSRSSQGTLVTVSSGGGGSGGGSEVQLVESGGGVVQPGGSLRLSCAASGFTFRSFGMSWVRQAPGKGPEWVSSISGSGSDTLYADSVKGRFTISRDNSKNTLYLQMNSLRPEDTALYYCTIGGSLSRSSQGTLVTVSSA | – |
| 32000 M⁻¹ s⁻¹ | 0.0016 s⁻¹ | 8.8 nM | 0.0016 s⁻¹ | 160000 M⁻¹ s⁻¹ | 0.0043 s⁻¹ | 100 nM | 58000 M⁻¹ s⁻¹ | 180000 M⁻¹ s⁻¹ | 140 nM | 0.0059 s⁻¹ | 9.9 nM | T026301365 (VHH, not shown: large carriers; small tags and cut ends, Tetravalent ISVD fusion protein made in P. pastoris; X and Y are undisclosed target ISVDs; also called X-9GS-Y-9GS-ALB23002-35GS-Alb223) EVQLVESGGGVVQPGGSLRLSCAASGFTFRSFGMSWVRQAPGKGPEWVSSISGSGSDTLYADSVKGRFTISRDNSKNTLYLQMNSLRPEDTALYYCTIGGSLSRSSQGTLVTVSSGGGGSGGGGSGGGGSGGGGSGGGGSGGGGSGGGGSEVQLVESGGGVVQPGGSLRLSCAASGFTFRSFGMSWVRQAPGKGPEWVSSISGSGSDTLYADSVKGRFTISRDNSKNTLYLQMNSLRPEDTALYYCTIGGSLSRSSQGTLVTVSSA | – |
